Source: US20160060340A1 (Kyowa Kirin, published 2016)

Legend:
[1] = molecular target: T1, FOLR1-mycHis (human, UniProt P15328 25-233); experiment: SPR (Biacore), antibody captured by Human Antibody Capture Kit on a CM5 chip, FOLR1-mycHis as analyte (12.3-1000 ng/mL, as in Example 29); affinity relative to ChRA15-7Acc = 100
T1 construct: Secreted from CHO/DG44 cells, purified on Ni-NTA; Residues 1-233 include the native signal peptide; also called non-reducing FOLR1-mycHis; recombinant protein having myc and His tag at the C-terminus of FOLR1 (1-233 amino acids); not shown: myc and His tag at the C-terminus
Method: (§1) The affinities of ChRA15-7Acc antibody and MORAb-003 antibody for FOLR1 were measured by a surface plasmon resonance method. The measurement was carried out in the same manner as in Example 16, except that a Human Antibody Capture Kit (GE Healthcare) was immobilized onto the CM5 chip by amine coupling and FOLR1-mycHis prepared by five-step dilution (12.3, 37, 111, 333, 1000 ng/mL) was applied as an analyte.
(§2) Affinities of HV7LV3-CDRH3-Cys101 modified antibodies for FOLR1 were measured by the surface plasmon resonance method in the same manner as in Example 29.

[2] = molecular target: T1, FOLR1-mycHis; experiment: surface plasmon resonance as in Example 29
Method: as §1, §2

[3] = molecular target: T1, FOLR1-mycHis; experiment: SPR as in Example 29, antibody captured, FOLR1-mycHis as analyte
Method: as §1, §2

[4] = molecular target: T1, FOLR1-mycHis; experiment: SPR (Biacore T100), antibody captured with Human Antibody Capture Kit, FOLR1-mycHis as analyte, 1:1 binding model
Method: The affinity was analyzed from association constant (Ka) and dissociation constant (Kd) by Single-cycle kinetics. Kinetic constants (ka, kd, KD) were calculated by 1:1 binding model using a Biacore T-100 Evaluation software (GE Healthcare).
as §1

T1 sequence (P15328 25-233): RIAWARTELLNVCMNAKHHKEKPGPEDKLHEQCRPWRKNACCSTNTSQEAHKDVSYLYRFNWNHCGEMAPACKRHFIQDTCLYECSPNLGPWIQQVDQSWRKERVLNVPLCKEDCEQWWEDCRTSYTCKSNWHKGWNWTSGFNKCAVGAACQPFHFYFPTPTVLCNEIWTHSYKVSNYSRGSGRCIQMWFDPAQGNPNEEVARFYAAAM

Binder | affinity as percent of the affinity of ChRA15-7Acc antibody [2] | affinity as percent of the affinity of ChRA15-7Acc antibody [3] [%] | other results
C101A (antibody, V domains shown, also called HV7LV3-CDRH3-Cys101 modified antibody C101A; antibody in which Cys101 was modified with Ala) VH: EVQLVESGGGLVQPGGSLRLSCAASGFTFTDFYMNWVRQPPGKAPEWLGFIRNKANGYTTEFNPSVKGRFTISRDNSKNSLYLQMNSLKTEDTATYYCARALYGYAYYYVMDAWGQGTLVTVSS VL: DIQMTQSPSSLSASLGDRVTITCRTSEDIFRNLAWYQQKPGKAPKLLIYDTNRLADGVPSRFSGSGSGTDYTLTISSLQPEDFATYFCQQYDNYPLTFGQGTKLEIK |  |  | binding result [1]: binds
C101G (antibody, V domains shown, also called HV7LV3-CDRH3-Cys101 modified antibody C101G; antibody in which Cys101 was modified with Gly) VH: EVQLVESGGGLVQPGGSLRLSCAASGFTFTDFYMNWVRQPPGKAPEWLGFIRNKANGYTTEFNPSVKGRFTISRDNSKNSLYLQMNSLKTEDTATYYCARGLYGYAYYYVMDAWGQGTLVTVSS VL: DIQMTQSPSSLSASLGDRVTITCRTSEDIFRNLAWYQQKPGKAPKLLIYDTNRLADGVPSRFSGSGSGTDYTLTISSLQPEDFATYFCQQYDNYPLTFGQGTKLEIK |  |  | binding result [1]: binds
C101P (antibody, V domains shown, also called HV7LV3-CDRH3-Cys101 modified antibody C101P; antibody in which Cys101 was modified with Pro) VH: EVQLVESGGGLVQPGGSLRLSCAASGFTFTDFYMNWVRQPPGKAPEWLGFIRNKANGYTTEFNPSVKGRFTISRDNSKNSLYLQMNSLKTEDTATYYCARPLYGYAYYYVMDAWGQGTLVTVSS VL: DIQMTQSPSSLSASLGDRVTITCRTSEDIFRNLAWYQQKPGKAPKLLIYDTNRLADGVPSRFSGSGSGTDYTLTISSLQPEDFATYFCQQYDNYPLTFGQGTKLEIK |  |  | binding result [1]: no binding
HV7LV3-CDRH3-Cys101 modified antibody C101F (antibody, human IgG1, V domains shown, Human IgG1 kappa constant regions of pKANTEX93; transiently made in FUT8 double-knockout CHO-K1 cells; also called antibody in which Cys101 was modified with Phe) VH: EVQLVESGGGLVQPGGSLRLSCAASGFTFTDFYMNWVRQPPGKAPEWLGFIRNKANGYTTEFNPSVKGRFTISRDNSKNSLYLQMNSLKTEDTATYYCARFLYGYAYYYVMDAWGQGTLVTVSS VL: DIQMTQSPSSLSASLGDRVTITCRTSEDIFRNLAWYQQKPGKAPKLLIYDTNRLADGVPSRFSGSGSGTDYTLTISSLQPEDFATYFCQQYDNYPLTFGQGTKLEIK | ≥ 50 % of the affinity of ChRA15-7Acc antibody | 80 | 
HV7LV3-CDRH3-Cys101 modified antibody C101I (antibody, human IgG1, V domains shown, Human IgG1 kappa constant regions of pKANTEX93; transiently made in FUT8 double-knockout CHO-K1 cells; also called antibody in which Cys101 was modified with Ile) VH: EVQLVESGGGLVQPGGSLRLSCAASGFTFTDFYMNWVRQPPGKAPEWLGFIRNKANGYTTEFNPSVKGRFTISRDNSKNSLYLQMNSLKTEDTATYYCARILYGYAYYYVMDAWGQGTLVTVSS VL: DIQMTQSPSSLSASLGDRVTITCRTSEDIFRNLAWYQQKPGKAPKLLIYDTNRLADGVPSRFSGSGSGTDYTLTISSLQPEDFATYFCQQYDNYPLTFGQGTKLEIK | ≥ 50 % of the affinity of ChRA15-7Acc antibody | 73 | 
HV7LV3-CDRH3-Cys101 modified antibody C101M (antibody, human IgG1, V domains shown, Human IgG1 kappa constant regions of pKANTEX93; transiently made in FUT8 double-knockout CHO-K1 cells; also called antibody in which Cys101 was modified with Met) VH: EVQLVESGGGLVQPGGSLRLSCAASGFTFTDFYMNWVRQPPGKAPEWLGFIRNKANGYTTEFNPSVKGRFTISRDNSKNSLYLQMNSLKTEDTATYYCARMLYGYAYYYVMDAWGQGTLVTVSS VL: DIQMTQSPSSLSASLGDRVTITCRTSEDIFRNLAWYQQKPGKAPKLLIYDTNRLADGVPSRFSGSGSGTDYTLTISSLQPEDFATYFCQQYDNYPLTFGQGTKLEIK | ≥ 50 % of the affinity of ChRA15-7Acc antibody | 59 | 
HV7LV3-CDRH3-Cys101 modified antibody C101Q (antibody, human IgG1, V domains shown, Human IgG1 kappa constant regions of pKANTEX93; transiently made in FUT8 double-knockout CHO-K1 cells; also called antibody in which Cys101 was modified with Gln) VH: EVQLVESGGGLVQPGGSLRLSCAASGFTFTDFYMNWVRQPPGKAPEWLGFIRNKANGYTTEFNPSVKGRFTISRDNSKNSLYLQMNSLKTEDTATYYCARQLYGYAYYYVMDAWGQGTLVTVSS VL: DIQMTQSPSSLSASLGDRVTITCRTSEDIFRNLAWYQQKPGKAPKLLIYDTNRLADGVPSRFSGSGSGTDYTLTISSLQPEDFATYFCQQYDNYPLTFGQGTKLEIK | ≥ 50 % of the affinity of ChRA15-7Acc antibody | 64 | 
HV7LV3-CDRH3-Cys101 modified antibody C101T (HuRA15-7CT) (antibody, human IgG1, V domains shown, Expressed in FUT8-knockout CHO-K1 cells (Fc glycan without core fucose); not carried by the letters., Human IgG1 kappa constant regions of pKANTEX93; transiently made in FUT8 double-knockout CHO-K1 cells; Same vector as HuRA15-7CTDF; also called antibody in which Cys101 was modified with Thr) VH: EVQLVESGGGLVQPGGSLRLSCAASGFTFTDFYMNWVRQPPGKAPEWLGFIRNKANGYTTEFNPSVKGRFTISRDNSKNSLYLQMNSLKTEDTATYYCARTLYGYAYYYVMDAWGQGTLVTVSS VL: DIQMTQSPSSLSASLGDRVTITCRTSEDIFRNLAWYQQKPGKAPKLLIYDTNRLADGVPSRFSGSGSGTDYTLTISSLQPEDFATYFCQQYDNYPLTFGQGTKLEIK | ≥ 50 % of the affinity of ChRA15-7Acc antibody | 88 | 
HV7LV3-CDRH3-Cys101 modified antibody C101V (antibody, human IgG1, V domains shown, Human IgG1 kappa constant regions of pKANTEX93; transiently made in FUT8 double-knockout CHO-K1 cells; also called antibody in which Cys101 was modified with Val) VH: EVQLVESGGGLVQPGGSLRLSCAASGFTFTDFYMNWVRQPPGKAPEWLGFIRNKANGYTTEFNPSVKGRFTISRDNSKNSLYLQMNSLKTEDTATYYCARVLYGYAYYYVMDAWGQGTLVTVSS VL: DIQMTQSPSSLSASLGDRVTITCRTSEDIFRNLAWYQQKPGKAPKLLIYDTNRLADGVPSRFSGSGSGTDYTLTISSLQPEDFATYFCQQYDNYPLTFGQGTKLEIK | ≥ 50 % of the affinity of ChRA15-7Acc antibody | 55 | 
modified humanized RA15-7 antibody HV10LV2 (antibody, human IgG1, V domains shown, Human IgG1 kappa constant regions of pKANTEX93; transiently made in FUT8 double-knockout CHO-K1 cells) VH: EVQLVESGGGLVQPGGSMRLSCAASGFTFTDFYMNWIRQPAGKAPEWLGFIRNKANGYTTEFNPSVKGRFTISRDNSKNSLYLQMNSLKTEDTATYYCARCLYGYAYYYVMDAWGQGTLVTVSS VL: DIQMTQSPSSLSASVGDRVTITCRTSEDIFRNLAWYQQKPGKAPQLLIYDTNRLADGVPSRFSGSGSGTDYTLTISSLQPEDFATYYCQQYDNYPLTFGQGTKLEIK |  |  | affinity as percent of the affinity of ChRA15-7Acc [3]: ~70%
modified humanized RA15-7 antibody HV10LV3 (antibody, human IgG1, V domains shown, Human IgG1 kappa constant regions of pKANTEX93; transiently made in FUT8 double-knockout CHO-K1 cells) VH: EVQLVESGGGLVQPGGSMRLSCAASGFTFTDFYMNWIRQPAGKAPEWLGFIRNKANGYTTEFNPSVKGRFTISRDNSKNSLYLQMNSLKTEDTATYYCARCLYGYAYYYVMDAWGQGTLVTVSS VL: DIQMTQSPSSLSASLGDRVTITCRTSEDIFRNLAWYQQKPGKAPKLLIYDTNRLADGVPSRFSGSGSGTDYTLTISSLQPEDFATYFCQQYDNYPLTFGQGTKLEIK |  |  | affinity as percent of the affinity of ChRA15-7Acc [3]: ~70%
modified humanized RA15-7 antibody HV10LV4 (antibody, human IgG1, V domains shown, Human IgG1 kappa constant regions of pKANTEX93; transiently made in FUT8 double-knockout CHO-K1 cells) VH: EVQLVESGGGLVQPGGSMRLSCAASGFTFTDFYMNWIRQPAGKAPEWLGFIRNKANGYTTEFNPSVKGRFTISRDNSKNSLYLQMNSLKTEDTATYYCARCLYGYAYYYVMDAWGQGTLVTVSS VL: DIQMTQSPSSLSASLGDRVTITCRTSEDIFRNLAWYQQKPGKAPQLLIYDTNRLADGVPSRFSGSGSGTDYTLTISSLQPEDFATYFCQQYDNYPLTFGQGTKLEIK |  |  | affinity as percent of the affinity of ChRA15-7Acc [3]: ~70%
modified humanized RA15-7 antibody HV10LV6 (antibody, human IgG1, V domains shown, Human IgG1 kappa constant regions of pKANTEX93; transiently made in FUT8 double-knockout CHO-K1 cells) VH: EVQLVESGGGLVQPGGSMRLSCAASGFTFTDFYMNWIRQPAGKAPEWLGFIRNKANGYTTEFNPSVKGRFTISRDNSKNSLYLQMNSLKTEDTATYYCARCLYGYAYYYVMDAWGQGTLVTVSS VL: DIQMTQSPSSLSASLGDRVTITCRTSEDIFRNLAWYQQKPGKSPQLLIYDTNRLADGVPSRFSGSGSGTDYTLTISSLQPEDFAGYFCQQYDNYPLTFGQGTKLEIK |  |  | affinity as percent of the affinity of ChRA15-7Acc [3]: ~70%
MORAb-003 antibody (antibody, V domains shown) VH: EVQLVESGGGVVQPGRSLRLSCSASGFTFSGYGLSWVRQAPGKGLEWVAMISSGGSYTYYADSVKGRFAISRDNAKNTLFLQMDSLRPEDTGVYFCARHGDDPAWFAYWGQGTPVTVSS VL: DIQLTQSPSSLSASVGDRVTITCSVSSSISSNNLHWYQQKPGKAPKPWIYGTSNLASGVPSRFSGSGSGTDYTFTISSLQPEDIATYYCQQWSSYPYMYTFGQGTKVEIKR |  |  | Kd [4]: 57 nM; koff [4]: 0.0259 s⁻¹
